Data: PMC7954794, “Protein context shapes the specificity of SH3 domain-mediated interactions in vivo” (Nature Communications, 2021)

B1: YGL060W_1 (protein, UniProt P53169 1-641, looked up)
YAP1-binding protein 2: MYNEQVNSGKSIKEKERYLDALLKILKDNPVTLKEIGWDLPKGLLQFFSRKNINVNIHLVFSPLVSSVMECFNELAINGNPKECLLTACELVSTLHIVLTETGDSDEENEDLNDSNRNDASNITDELSVITPEIGHYMAKNTVEFIPNLKIYVLFEFMSLLLKRVDTLYPSKFLAMVTSAIIKYVTTNVQAMDDPHFILRIVYNFCTNYSPAQPSASLTDGISTNDLEKIHDDESALQKKLLANLSVFVISNCLKNHPGNIDKIYFKTLMHKKTDENEIDASVLQICHQYYEYVTSLDVHMKELLEKCLVESRSIYNSLLMNPAASTPEFKEEINQLVYEVSYAYQIKKLADEKNLELDQYGVVILSAIHYSKNGTHLLPQIDIQSAIYLYLRCTTASLFSEIYENKFLESSVRYWLWVSTTETSTEKIKCALQELPGHITTAFLQMLLMKTCNESNNDTKLTEITLLRRLLYLMPESTSFTFIFETLLHCPYITAKIAVLDILRDMMIRSPEAANRDETVGLIEQQNPGNTANSVPIMPTLPPRPYITINEDRMASIHSIALICFSAAKQKKRTQGDLLLVLTYMKFFVSLRNKWDLGLLTLINKEISESFQGEGEPELAFINISNNTLGEYIEEMNIRS
B2: YKR082W_1 (protein, UniProt P36161 2-1157, looked up)
Nucleoporin NUP133: SEKKVHLRLRKELSVPIAVVENESLAQLSYEEESQASLMDISMEQQQLRLHSHFDNSKVFTENNRYIVKTLQTDYSSGFSNDDELNGYIDMQIGYGLVNDHKKVYIWNIHSTQKDTPYITVPFRSDDNDEIAVAPRCILTFPATMDESPLALNPNDQDETGGLIIIKGSKAIYYEDINSINNLNFKLSEKFSHELELPINSSGGEKCDLMLNCEPAGIVLSTNMGRIFFITIRNSMGKPQLKLGKLLNKPFKLGIWSKIFNTNSSVVSLRNGPILGKGTRLVYITTNKGIFQTWQLSATNSHPTKLIDVNIYEAILESLQDLYPFAHGTLKIWDSHPLQDESSQLFLSSIYDSSCNETYYILSTIIFDSSSNSFTIFSTYRLNTFMESITDTKFKPKIFIPQMENANDTNEVTSILVMFPNAVVITQVNSKLDSSYSMRRKWEDIVSLRNDIDIIGSGYDSKSLYVLTKQMGVLQFFVKENEETNSKPEVGFVKSHVDQAVYFSKINANPIDFNLPPEISLDQESIEHDLKLTSEEIFHSNGKYIPPMLNTLGQHLSVRKEFFQNFLTFVAKNFNYKISPELKLDLIEKFEILNCCIKFNSIIRQSDVLNDIWEKTLSNYNLTQNEHLTTKTVVINSPDVFPVIFKQFLNHVVFVLFPSQNQNFKLNVTNLINLCFYDGILEEGEKTIRYELLELDPMEVDTSKLPWFINFDYLNCINQCFFDFTFACEEEGSLDSYKEGLLKIVKILYYQFNQFKIWINTQPVKSVNANDNFININNLYDDNHLDWNHVLCKVNLKEQCIQIAEFYKDLSGLVQTLQTLDQNDSTTVSLYETFFNEFPKEFSFTLFEYLIKHKKLNDLIFRFPQQHDVLIQFFQESAPKYGHVAWIQQILDGSYADAMNTLKNITVDDSKKGESLSECELHLNVAKLSSLLVEKDNLDINTLRKIQYNLDTIDAEKNISNKLKKGEVQICKRFKNGSIREVFNILVEELKSTTVVNLSDLVELYSMLDDEESLFIPLRLLSVDGNLLNFEVKKFLNALVWRRIVLLNASNEGDKLLQHIVKRVFDEELPKNNDFPLPSVDLLCDKSLLTPEYISETYGRFPIDQNAIREEIYEEISQVETLNSDNSLEIKLHSTIGSVAKEKNYTINYETNTVEY
B3: YGL153W_2 (protein, UniProt P53112 2-341, looked up)
Peroxisomal membrane protein …: SDVVSKDRKALFDSAVSFLKDESIKDAPLLKKIEFLKSKGLTEKEIEIAMKEPKKDGIVGDEVSKKIGSTENRASQDMYLYEAMPPTLPHRDWKDYFVMATATAGLLYGAYEVTRRYVIPNILPEAKSKLEGDKKEIDDQFSKIDTVLNAIEAEQAEFRKKESETLKELSDTIAELKQALVQTTRSREKIEDEFRIVKLEVVNMQNTIDKFVSDNDGMQELNNIQKEMESLKSLMNNRMESGNAQDNRLFSISPNGIPGIDTIPSASEILAKMGMQEESDKEKENGSDANKDDNAVPAWKKAREQTIDSNASIPEWQKNTAANEISVPDWQNGQVEDSIP

System: PPIs identified as affected by the SH3 domain deletions
Assay: Liquid DHFR-PCA low-throughput validation of PPIs affected by SH3 deletion (Fig. S1D-E)
Format: cell-based, Saccharomyces cerevisiae
Conditions: label = prey, liquid DHFR-PCA, prey _1 = lost, _2 = gained in screen
Method in brief: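 Growth at 30 °C was tracked by OD each 15 min over 72 h in agar-free PCA selection medium, starting at 0.1 OD. Cells were diploids selected after mating, first cultured 48 h with NAT and HPH in synthetic complete MSG medium, pH 6.0.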

| Molecule | Ratio (Deletedscore / WTscore) (bait RVS167) | Ratio (Deletedscore / WTscore) (bait BEM1-1) |
| --- | --- | --- |
| B1 | 0.4505 |  |
| B2 | 0.6329 |  |
| B3 |  | 1.295 |
